Test results published in the Immune Epitope Database (IEDB).

Legend:
[1] = target: HLA-A*02:01; assay: IEDB peptide-MHC binding, purified MHC/competitive/fluorescence; filed as Kd, often an IC50 or EC50 that approximates it; ≥ and ≤ were set here for values at or beyond the usual limits of such assays
[2] = target: HLA-A*02:16; assay: as above; conditions: source organism: Bacillus anthracis str. A0488
[3] = target: HLA-A*02:19; assay: as above
[4] = target: HLA-A*03:01; assay: as above
[5] = target: HLA-A*23:01; assay: as above
[6] = target: HLA-A*24:03; assay: as above
[7] = target: HLA-A*26:01; assay: as above
[8] = target: HLA-A*29:02; assay: as above
[9] = target: HLA-A*68:02; assay: as above
[10] = target: HLA-A*69:01; assay: as above; conditions: source organism: Bacillus anthracis str. A0488
[11] = target: HLA-B*15:01; assay: as above
[12] = target: HLA-B*15:17; assay: as above; conditions: source organism: Bacillus anthracis str. A0488
[13] = target: HLA-B*18:01; assay: as above
[14] = target: HLA-B*27:03; assay: as above
[15] = target: HLA-B*46:01; assay: as above
[16] = target: HLA-B*51:01; assay: as above
[17] = target: HLA-B*57:01; assay: as above
[18] = target: HLA-A*01:01; assay: IEDB peptide-MHC binding, purified MHC/direct/fluorescence; filed as Kd, often an IC50 or EC50 that approximates it; ≥ and ≤ were set here for values at or beyond the usual limits of such assays
[19] = target: HLA-A*02:01; assay: as above
[20] = target: HLA-B*07:02; assay: as above
[21] = target: HLA-B*08:03; assay: as above; conditions: source organism: Ravn virus - Ravn, Kenya, 1987
[22] = target: HLA-B*15:01; assay: as above
[23] = target: HLA-B*18:01; assay: as above
[24] = target: HLA-B*38:01; assay: as above
[25] = target: HLA-B*39:01; assay: as above
[26] = target: HLA-B*40:01; assay: as above
[27] = target: HLA-B*46:01; assay: as above
[28] = target: HLA-B*48:01; assay: as above; conditions: source organism: Ebola virus - Mayinga, Zaire, 1976
[29] = target: HLA-B*57:01; assay: as above
[30] = target: HLA-B*58:01; assay: as above
[31] = target: HLA-A*26:02; assay: IEDB peptide-MHC binding, purified MHC/competitive/fluorescence; filed as Kd, often an IC50 or EC50 that approximates it; ≥ and ≤ were set here for values at or beyond the usual limits of such assays; conditions: source organism: Zaire ebolavirus
[32] = target: HLA-A*02:12; assay: as above; conditions: source organism: Giardia lamblia ATCC 50803
[33] = target: HLA-B*39:01; assay: as above; conditions: source organism: Giardia lamblia ATCC 50803
[34] = target: HLA-A*26:01; assay: IEDB peptide-MHC binding, purified MHC/direct/fluorescence; filed as Kd, often an IC50 or EC50 that approximates it; ≥ and ≤ were set here for values at or beyond the usual limits of such assays; conditions: source organism: Variola virus
[35] = target: HLA-A*26:02; assay: as above; conditions: source organism: Variola virus
[36] = target: HLA-A*68:02; assay: as above; conditions: source organism: Aracatuba virus
[37] = target: HLA-A*69:01; assay: as above; conditions: source organism: Aracatuba virus
[38] = target: HLA-B*08:01; assay: as above; conditions: source organism: Variola virus
[39] = target: HLA-B*08:02; assay: as above; conditions: source organism: Variola virus
[40] = target: HLA-B*15:17; assay: as above; conditions: source organism: Aracatuba virus
[41] = target: HLA-B*27:05; assay: as above; conditions: source organism: Aracatuba virus
[42] = target: HLA-A*30:01; assay: IEDB peptide-MHC binding, purified MHC/competitive/fluorescence; filed as Kd, often an IC50 or EC50 that approximates it; ≥ and ≤ were set here for values at or beyond the usual limits of such assays; conditions: source organism: Rabbitpox virus
[43] = target: HLA-B*48:01; assay: as above; conditions: source organism: Rabbitpox virus
[44] = source organism: Bacillus anthracis str. A0488
[45] = source organism: Ebola virus - Mayinga, Zaire, 1976
[46] = source organism: Zaire ebolavirus
[47] = source organism: Giardia lamblia ATCC 50803
[48] = source organism: Aracatuba virus

## KQGDVFYTA
[1]; [44]
  Kd: ≥ 20 µM
[2]
  Kd: 0.0514 µM
[3]; [44]
  Kd: ≥ 20 µM
[4]; [44]
  Kd: ≥ 20 µM
[5]; [44]
  Kd: ≥ 20 µM
[6]; [44]
  Kd: ≥ 20 µM
[7]; [44]
  Kd: ≥ 20 µM
[8]; [44]
  Kd: ≥ 20 µM
[9]; [44]
  Kd: ≥ 20 µM
[10]
  Kd: ≥ 20 µM
[11]; [44]
  Kd: ≥ 20 µM
[12]
  Kd: ≥ 20 µM
[13]; [44]
  Kd: ≥ 20 µM
[14]; [44]
  Kd: ≥ 20 µM
[15]; [44]
  Kd: ≥ 20 µM
[16]; [44]
  Kd: ≥ 20 µM
[17]; [44]
  Kd: ≥ 20 µM

## SRTPSGKRL
[18]; [45]
  Kd: ≥ 20 µM
[19]; [45]
  Kd: ≥ 20 µM
[20]; [45]
  Kd: ≥ 20 µM
[21]
  Kd: ≥ 20 µM
[22]; [45]
  Kd: ≥ 20 µM
[23]; [45]
  Kd: ≥ 20 µM
[24]; source organism: Ravn virus - Ravn, Kenya, 1987
  Kd: ≥ 20 µM
[25]; [45]
  Kd: ≥ 20 µM
[26]; [45]
  Kd: ≥ 20 µM
[27]; [45]
  Kd: ≥ 20 µM
[28]
  Kd: ≥ 20 µM
[29]; [45]
  Kd: ≥ 20 µM
[30]; [45]
  Kd: ≥ 20 µM
[7]; [46]
  Kd: 2.12 µM
[31]
  Kd: 2.8 µM
[9]; [46]
  Kd: 3.11 µM

## STTTCEAGV
[1]; [47]
  Kd: ≥ 20 µM
[32]
  Kd: 0.284 µM
[3]; [47]
  Kd: ≥ 20 µM
[4]; [47]
  Kd: ≥ 20 µM
[5]; [47]
  Kd: ≥ 20 µM
[6]; [47]
  Kd: ≥ 20 µM
[7]; [47]
  Kd: ≥ 20 µM
[8]; [47]
  Kd: ≥ 20 µM
[11]; [47]
  Kd: ≥ 20 µM
[13]; [47]
  Kd: ≥ 20 µM
[14]; [47]
  Kd: ≥ 20 µM
[33]
  Kd: ≥ 20 µM
[15]; [47]
  Kd: ≥ 20 µM
[16]; [47]
  Kd: ≥ 20 µM
[17]; [47]
  Kd: ≥ 20 µM

## YKEPNSIIL
[18]; [48]
  Kd: ≥ 20 µM
[19]; [48]
  Kd: ≥ 20 µM
[34]
  Kd: ≥ 20 µM
[35]
  Kd: ≥ 20 µM
[36]
  Kd: ≥ 20 µM
[37]
  Kd: ≥ 20 µM
[20]; [48]
  Kd: ≥ 20 µM
[38]
  Kd: ≥ 20 µM
[39]
  Kd: ≥ 20 µM
[22]; [48]
  Kd: ≥ 20 µM
[40]
  Kd: ≥ 20 µM
[23]; [48]
  Kd: ≥ 20 µM
[41]
  Kd: ≥ 20 µM
[24]; source organism: Variola virus
  Kd: 0.617 µM
[25]; [48]
  Kd: 0.0305 µM
[26]; [48]
  Kd: ≥ 20 µM
[27]; [48]
  Kd: ≥ 20 µM
[29]; [48]
  Kd: ≥ 20 µM
[30]; [48]
  Kd: ≥ 20 µM
[42]
  Kd: ≥ 20 µM
[43]
  Kd: 0.224 µM
